Assay results taken from the supplement of paper PMC11246515.
± gives the standard deviation of the averaged measurements.

Test: total protein half-life in vivo (active degradation + dilution); higher = more stable protein
[1] = E. coli NCM3722 delta-clpP delta-lon delta-hslV, growth: N-lim chemostat, doubling time 6 h
[2] = E. coli NCM3722 delta-clpP, growth: N-lim chemostat, doubling time 6 h
[3] = E. coli NCM3722 delta-hslV, growth: N-lim chemostat, doubling time 6 h
[4] = E. coli NCM3722 delta-lon, growth: N-lim chemostat, doubling time 6 h
[5] = E. coli NCM3722 delta-smpB, growth: N-lim chemostat, doubling time 6 h
[6] = wild type E. coli NCM3722, growth: C-lim chemostat, doubling time 3 h
[7] = wild type E. coli NCM3722, growth: C-lim chemostat, doubling time 6 h
[8] = wild type E. coli NCM3722, growth: C-lim chemostat, doubling time 12 h
[9] = wild type E. coli NCM3722, growth: N-lim chemostat, doubling time 6 h
[10] = wild type E. coli NCM3722, growth: N-lim chemostat, doubling time 12 h
[11] = wild type E. coli NCM3722, growth: P-lim chemostat, doubling time 6 h
[12] = wild type E. coli NCM3722, growth: P-lim chemostat, doubling time 12 h

Sequence | total protein half-life in vivo [1] [h] | total protein half-life in vivo [2] [h] | total protein half-life in vivo [3] [h] | total protein half-life in vivo [4] [h] | total protein half-life in vivo [5] [h] | total protein half-life in vivo [6] [h] | total protein half-life in vivo [7] [h] | total protein half-life in vivo [8] [h] | total protein half-life in vivo [9] [h] | total protein half-life in vivo [10] [h] | total protein half-life in vivo [11] [h] | total protein half-life in vivo [12] [h]
MSDVAETLDPLRLPLQGERLIEASAGTGKTFTIAALYLRLLLGLGGSAAFPRPLTVEELLVVTFTEAATAELRGRIRSNIHELRIACLRETTDNPLYERLLEEIDDKAQAAQWLLLAERQMDEAAVFTIHGFCQRMLNLNAFESGMLFEQQLIEDESLLRYQACADFWRRHCYPLPREIAQVVFETWKGPQALLRDINRYLQGEAPVIKAPPPDDETLASRHAQIVARIDTVKQQWRDAVGELDALIESSGIDRRKFNRSNQAKWIDKISAWAEEETNSYQLPESLEKFSQRFLEDRTKAGGETPRHPLFEAIDQLLAEPLSIRDLVITRALAEIRETVAREKRRRGELGFDDMLSRLDSALRSESGEVLAAAIRTRFPVAMIDEFQDTDPQQYRIFRRIWHHQPETALLLIGDPKQAIYAFRGADIFTYMKARSEVHAHYTLDTNWRSAPGMVNSVNKLFSQTDDAFMFREIPFIPVKSAGKNQALRFVFKGETQPAMKMWLMEGESCGVGDYQSTMAQVCAAQIRDWLQAGQRGEALLMNGDDARPVRASDISVLVRSRQEAAQVRDALTLLEIPSVYLSNRDSVFETLEAQEMLWLLQAVMTPERENTLRSALATSMMGLNALDIETLNNDEHAWDVVVEEFDGYRQIWRKRGVMPMLRALMSARNIAENLLATAGGERRLTDILHISELLQEAGTQLESEHALVRWLSQHILEPDSNASSQQMRLESDKHLVQIVTIHKSKGLEYPLVWLPFITNFRVQEQAFYHDRHSFEAVLDLNAAPESVDLAEAERLAEDLRLLYVALTRSVWHCSLGVAPLVRRRGDKKGDTDVHQSALGRLLQKGEPQDAAGLRTCIEALCDDDIAWQTAQTGDNQPWQVNDVSTAELNAKTLQRLPGDNWRVTSYSGLQQRGHGIAQDLMPRLDVDAAGVASVVEEPTLTPHQFPRGASPGTFLHSLFEDLDFTQPVDPNWVREKLELGGFESQWEPVLTEWITAVLQAPLNETGVSLSQLSARNKQVEMEFYLPISEPLIASQLDTLIRQFDPLSAGCPPLEFMQVRGMLKGFIDLVFRHEGRYYLLDYKSNWLGEDSSAYTQQAMAAAMQAHRYDLQYQLYTLALHRYLRHRIADYDYEHHFGGVIYLFLRGVDKEHPQQGIYTTRPNAGLIALMDEMFAGMTLEEA | 5.03 ± 0.26 | 4.28 ± 0.35 | 3.64 ± 0.075 | 3.84 ± 0.3 | 3.72 ± 0.33 | 3.13 ± 0.34 | 5.03 ± 0.71 | 13.2 ± 3.9 | 3.87 ± 0.3 | 5.71 ± 0.92 | 6.9 ± 0.91 | 10.4 ± 0.56
MIKRTLLAAAIFSALPAYAGLTSITAGYDFTDYSGDHGNRNLAYAELVAKVENATLLFNLSQGRRDYETEHFNATRGQGAVWYKWNNWLTTRTGIAFADNTPVFARQDFRQDINLALLPKTLFTTGYRYTKYYDDVEVDAWQGGVSLYTGPVITSYRYTHYDSSDAGGSYSNMISVRLNDPRGTGYTQLWLSRGTGAYTYDWTPETRYGSMKSVSLQRIQPLTEQLNLGLTAGKVWYDTPTDDFNGLQLAARLTWKF | – | – | – | – | > 8 | – | – | 15.4 | – | – | – | –
MSIRFARKADCAAIAEIYNHAVLYTAAIWNDQTVDADNRIAWFEARTLAGYPVLVSEENGVVTGYASFGDWRSFDGFRHTVEHSVYVHPDHQGKGLGRKLLSRLIDEARDCGKHVMVAGIESQNQASLHLHQSLGFVVTAQMPQVGTKFGRWLDLTFMQLQLDERTEPDAIG | 5.23 ± 0.39 | 4.6 ± 0.25 | 4.9 ± 0.08 | 5.17 ± 0.18 | 4.66 ± 0.33 | 2.77 ± 0.072 | 5.77 ± 0.34 | 10.14 ± 0.042 | 4.93 ± 0.44 | 9.49 | 5.912 ± 0.025 | 12 ± 0.29
MSIKTSNTDFKTRIRQQIEDPIMRKAVANAQQRIGANRQKMVDELGHWEEWRDRAAQIRDHVLSNLDAYLYQLSEKVTQNGGHVYFARTKEDATRYILQVAQRKNARKVVKSKSMVTEEIGVNHVLQDAGIQVIETDLGEYILQLDQDPPSHVVVPAIHKDRHQIRRVLHERLGYEGPETPEAMTLFIRQKIREDFLSAEIGITGCNFAVAETGSVCLVTNEGNARMCTTLPKTHIAVMGMERIAPTFAEVDVLITMLARSAVGARLTGYNTWLTGPREAGHVDGPEEFHLVIVDNGRSEVLASEFRDVLRCIRCGACMNTCPAYRHIGGHGYGSIYPGPIGAVISPLLGGYKDFKDLPYACSLCTACDNVCPVRIPLSKLILRHRRVMAEKGITAKAEQRAIKMFAYANSHPGLWKVGMMAGAHAASWFINGGKTPLKFGAISDWMEARDLPEADGESFRSWFKKHQAQEKKNG | 5.21 ± 0.71 | – | 3.96 ± 3.1 | – | 1.76 ± 0.072 | 1.83 ± 0.084 | 3.47 ± 0.48 | 4.06 ± 0.2 | 1.72 | – | 1.89 | 3.14 ± 0.62
MQYPINEMFQTLQGEGYFTGVPAIFIRLQGCPVGCAWCDTKHTWEKLEDREVSLFSILAKTKESDKWGAASSEDLLAVIGRQGYTARHVVITGGEPCIHDLLPLTDLLEKNGFSCQIETSGTHEVRCTPNTWVTVSPKLNMRGGYEVLSQALERANEIKHPVGRVRDIEALDELLATLTDDKPRVIALQPISQKDDATRLCIETCIARNWRLSMQTHKYLNIA | 4.61 ± 0.46 | 3.94 | 3.81 ± 0.46 | 4.5 ± 0.086 | 3.79 ± 0.57 | 2.309 ± 0.014 | 4.33 ± 0.17 | 6.66 ± 0.86 | 3.7 ± 0.29 | 6.06 ± 0.13 | 4.61 ± 0.56 | 7.47 ± 0.8
